Substitutions are numbered along the chain they refer to. Numbers in names are those of the source.
B1: ABCB7 (Homo sapiens) (protein)
chain: HSAILIRPLVSVSGSGPQWRPHQLGALGTARAYQIPESLKSITWQRLGKGNSGQFLDAAKALQVWPLIEKRTCWHGHAGGGLHTDPKEGLKDVDTRKIIKAMLSYVWPKDRPDLRARVAISLGFLGGAKAMNIVVPFMFKYAVDSLNQMSGNMLNLSDAPNTVATMATAVLIGYGVSRAGAAFFNEVRNAVFGKVAQNSIRRIAKNVFLHLHNLDLGFHLSRQTGALSKAIDRGTRGISFVLSALVFNLLPIMFEVMLVSGVLYYKCGAQFALVTLGTLGTYTAFTVAVTRWRTRFRIEMNKADNDAGNAAIDSLLNYETVKYFNNERYEAQRYDGFLKTYETASLKSTSTLAMLNFGQSAIFSVGLTAIMVLASQGIVAGTLTVGDLVMVNGLLFQLSLPLNFLGTVYRETRQALIDMNTLFTLLKVDTQIKDKVMASPLQITPQTATVAFDNVHFEYIEGQKVLSGISFEVPAGKKVAIVGGSGSGKSTIVRLLFRFYEPQKGSIYLAGQNIQDVSLESLRRAVGVVPQDAVLFHNTIYYNLLYGNISASPEEVYAVAKLAGLHDAILRMPHGYDTQVGERGLKLSGGEKQRVAIARAILKDPPVILYDEATSSLDSITEETILGAMKDVVKHRTSIFIAHRLSTVVDADEIIVLDQGKVAERGTHHGLLANPHSIYSEMWHTQSSRVQNHDNPKWEAKKENISKEEERKKLQEEIVNSVKGCGNCSC
B2: ABCB7 (Homo sapiens; E433D) (protein)
chain: B1 chain with E411D
B3: ABCB7 (Homo sapiens; E433Q) (protein)
chain: B1 chain with E411Q
B4: ABCB7 (Homo sapiens; E433K) (protein)
chain: B1 chain with E411K

Legend:
[1] = substrate: Nc1ncnc2c1ncn2[C@@H]1O[C@H](COP(=O)(O)OP(=O)(O)OP(=O)(O)O)[C@@H](O)[C@H]1O; assay: purified protein; type: biochemical, Homo sapiens; conditions: Mg2+ nucleotide binding domain
[2] = substrate: Nc1ncnc2c1ncn2[C@@H]1O[C@H](COP(=O)(O)OP(=O)(O)OP(=O)(O)O)[C@@H](O)[C@H]1O; assay: Michaelis-Menten ATPase kinetics; type: biochemical, Homo sapiens; conditions: Mg2+ nucleotide binding domain

| Protein | Km [1] [mM] | Vmax [1] [µM/min] | Km [2] [mM] | Vmax [2] [µM/min] |
| --- | --- | --- | --- | --- |
| B1 | 5.3 ± 1.0 | 0.58 |  |  |
| B2 |  |  | 0.85 ± 0.28 | 0.35 |
| B3 |  |  | 0.71 ± 0.30 | 0.28 |
| B4 |  |  | 0.49 ± 0.11 | 0.37 |

— PMC7785629
